Holding throughout (assay): SEC
In general terms: Size exclusion chromatography separates by hydrodynamic size, large species first.

For data set [1], the target named is MtbGmhA Q173A mutant (M. tuberculosis) (UniProt P9WGG1).
In data set [2] the target is MtbGmhA S123A mutant (M. tuberculosis) (UniProt P9WGG1).
Data set [3] has as its target MtbGmhA S126A mutant (M. tuberculosis) (UniProt P9WGG1).
Data set [4] has as its target MtbGmhA T122A mutant (M. tuberculosis) (UniProt P9WGG1).
Data set [5] concerns the molecule itself.

For orientation: stoichiometry N means the number of molecules, sites or subunits per partner or assembly.

Residue numbers refer to the chain shown, from its start. In names and notes the source's numbering stands.

In data set [1], “MtbGmhA Q173A mutant (from UniProt P9WGG1 1-196) (enzyme)” came in with a stoichiometry N of 4.

Consider “MtbGmhA S123A mutant (from UniProt P9WGG1 1-196) (enzyme)”, for which, in data set [2], the stoichiometry N amounted to 4.

With “MtbGmhA S126A mutant (from UniProt P9WGG1 1-196) (enzyme)”, the stoichiometry N in data set [3] stood at 4.

Molecule “MtbGmhA T122A mutant (from UniProt P9WGG1 1-196) (enzyme)” displayed a stoichiometry N in data set [4] of 4.

B1: MtbGmhA N53G mutant (enzyme)
chain: MCTARTAEEIFVETIAVKTRILNDRVLLEAARAIGDRLIAGYRAGARVFMCGGGGSAADAQHFAAELTGHLIFDRPPLGAEALHANSSHLTAVANDYDYDTVFARALEGSARPGDTLFAISTSGNSMSVLRAAKTARELGVTVVAMTGESGGQLAEFADFLINVPSRDTGRIQESHIVFIHAISEHVEHALFAPRQ
notes: not shown: His6, N-terminal, kept
On to B1, for which the “stoichiometry N” value in data set [5] was 4.

B2: MtbGmhA S121G mutant (enzyme)
chain: B1 chain with G53N, S121G
notes: as for B1
Take B2: in data set [5], the “stoichiometry N” value worked out at 4.
